This is an account of results in article doi:10.1101/2022.01.06.475303 (bioRxiv, 2022).

This assay concerns the target SARS-CoV-2 receptor binding domain (RBD), Wuhan-1 (SARS-CoV-2 Wuhan-Hu-1, UniProt P0DTC2). Kind of assay: SPR.

B1: eCC12.1.7 IgG (antibody, V domains shown)
VH: EVQLVESGGGLIQPGGSLRLSCAASGLTVSSNYMTWVRQAPGKGLEWVSVIYAGGSTFYADSVKGRFTISRDNSKNTLYLQMNSLRAEDTAVYYCARDLDVYGVDVWGQGTTVTVSS
VL: DIQLTQSPSFLSASVGDRVTITCRASQGISRYLAWYQQKPGKAPKLLIYAASTLQYGVPSRFSGSGSGTEFTLTISSLQPEDFATYYCQQLNSYPPKYTFGPGTKVEIK
Turning to B1, the binding result is listed as “binds”.
